Target: RbcL (large subunit of form I ribulose 1,5-bisphosphate carboxylase oxygenase) (Synechococcus sp. PCC 7335)
Assay: cryo-EM structure; single-particle cryo-EM of form I Rubisco found in the same fraction; 2.35 Å, D4 symmetry

stoichiometry N: 8
Substance: RbcL (large subunit of form I ribulose 1,5-bisphosphate carboxylase oxygenase) (enzyme)
